Legend:
[1] = biological target: cynomolgus monkey MuSK (cynomolgus monkey, UniProt A0A2K5USF6 24-487); test: Biacore, MuSK on chip (200RU), 66.7 nM mAb, dissociation pH 7.4
Outline: (§1)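 Sensor chip coated in parallel with cynomolgus monkey, rat and mouse MuSK. Antibody applied at a single concentration; association and dissociation kinetic parameters calculated from the sensorgrams.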

[2] = biological target: T1, rat MuSK (rat, UniProt Q62838 22-494, limits assumed); test: as above
T1 construct: Coated on Biacore chip (200RU) or ELISA plate
T1 sequence (looked up): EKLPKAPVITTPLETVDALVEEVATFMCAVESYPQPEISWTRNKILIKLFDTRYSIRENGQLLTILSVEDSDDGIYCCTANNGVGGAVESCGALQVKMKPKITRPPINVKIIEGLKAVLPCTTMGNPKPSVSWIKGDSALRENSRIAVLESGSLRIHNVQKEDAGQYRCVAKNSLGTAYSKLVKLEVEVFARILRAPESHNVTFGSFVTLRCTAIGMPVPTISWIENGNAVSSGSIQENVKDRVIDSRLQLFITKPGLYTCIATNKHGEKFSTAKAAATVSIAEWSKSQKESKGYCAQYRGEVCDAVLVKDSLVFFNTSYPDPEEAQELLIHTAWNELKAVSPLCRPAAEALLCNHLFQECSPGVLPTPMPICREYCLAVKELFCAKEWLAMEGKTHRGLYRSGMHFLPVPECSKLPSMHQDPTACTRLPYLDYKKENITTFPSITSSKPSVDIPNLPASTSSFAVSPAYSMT
Outline: as §1

[3] = biological target: T2, mouse MuSK (mouse, UniProt Q61006 22-494, limits assumed); test: as above
T2 construct: Coated on ELISA plates or on the Biacore chip; also called full length mouse MuSK; mouse MuSK (in house produced in HEK293 cells)
T2 sequence (looked up): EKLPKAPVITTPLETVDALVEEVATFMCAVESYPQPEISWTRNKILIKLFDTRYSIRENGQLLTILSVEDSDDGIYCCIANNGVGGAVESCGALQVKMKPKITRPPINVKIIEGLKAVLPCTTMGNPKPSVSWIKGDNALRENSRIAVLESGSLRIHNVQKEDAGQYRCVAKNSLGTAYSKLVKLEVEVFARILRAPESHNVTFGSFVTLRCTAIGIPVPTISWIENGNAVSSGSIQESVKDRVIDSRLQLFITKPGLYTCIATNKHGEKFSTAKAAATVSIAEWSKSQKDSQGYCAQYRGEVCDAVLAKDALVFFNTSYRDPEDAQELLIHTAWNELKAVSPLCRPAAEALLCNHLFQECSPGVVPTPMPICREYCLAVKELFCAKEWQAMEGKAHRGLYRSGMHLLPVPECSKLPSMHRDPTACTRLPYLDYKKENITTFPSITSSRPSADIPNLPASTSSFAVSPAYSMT
Outline: as §1

[4] = biological target: T3, mouse MuSK, endogenous (C2C12 myotubes; neuromuscular synapses of mice) (mouse, UniProt Q61006 22-868); test: cell-based or functional assay
T3 sequence (looked up): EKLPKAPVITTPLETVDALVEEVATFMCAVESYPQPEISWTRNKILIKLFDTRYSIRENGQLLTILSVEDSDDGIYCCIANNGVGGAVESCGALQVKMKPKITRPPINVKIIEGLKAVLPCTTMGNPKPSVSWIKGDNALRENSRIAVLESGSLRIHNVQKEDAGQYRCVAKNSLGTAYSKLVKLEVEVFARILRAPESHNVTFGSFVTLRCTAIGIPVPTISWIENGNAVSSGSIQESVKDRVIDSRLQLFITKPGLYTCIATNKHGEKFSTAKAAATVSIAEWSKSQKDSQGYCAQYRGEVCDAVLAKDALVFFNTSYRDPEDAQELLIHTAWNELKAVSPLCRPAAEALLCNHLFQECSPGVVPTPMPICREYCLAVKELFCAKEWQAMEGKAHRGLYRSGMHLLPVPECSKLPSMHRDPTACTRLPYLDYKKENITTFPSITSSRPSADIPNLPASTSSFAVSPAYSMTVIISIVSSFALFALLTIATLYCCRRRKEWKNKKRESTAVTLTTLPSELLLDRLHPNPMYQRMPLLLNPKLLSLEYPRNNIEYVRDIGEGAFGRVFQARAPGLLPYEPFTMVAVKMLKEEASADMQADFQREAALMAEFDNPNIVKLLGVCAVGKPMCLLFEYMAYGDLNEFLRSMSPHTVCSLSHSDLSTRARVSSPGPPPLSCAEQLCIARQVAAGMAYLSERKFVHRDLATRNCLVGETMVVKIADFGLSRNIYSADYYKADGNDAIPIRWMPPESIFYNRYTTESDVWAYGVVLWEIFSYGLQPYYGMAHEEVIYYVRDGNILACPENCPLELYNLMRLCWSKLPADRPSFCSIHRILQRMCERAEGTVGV

Chain of cynomolgus monkey MuSK (A0A2K5USF6 entry or part of it): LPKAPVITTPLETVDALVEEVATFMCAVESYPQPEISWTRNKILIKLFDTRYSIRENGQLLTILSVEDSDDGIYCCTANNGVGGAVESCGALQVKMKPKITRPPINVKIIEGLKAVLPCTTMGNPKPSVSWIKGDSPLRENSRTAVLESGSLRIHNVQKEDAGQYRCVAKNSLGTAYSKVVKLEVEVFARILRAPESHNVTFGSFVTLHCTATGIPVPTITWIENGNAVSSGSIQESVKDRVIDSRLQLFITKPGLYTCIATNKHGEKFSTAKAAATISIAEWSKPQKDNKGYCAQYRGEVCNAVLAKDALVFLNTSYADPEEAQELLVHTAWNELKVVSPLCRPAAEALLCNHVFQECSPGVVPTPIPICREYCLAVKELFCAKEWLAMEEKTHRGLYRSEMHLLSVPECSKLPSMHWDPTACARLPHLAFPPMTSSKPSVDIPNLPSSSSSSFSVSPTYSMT

B1: 3B2 (antibody, V domains shown)
VH: ELQLVESGGGLVQPGGSLRLSCAASGFTFDDYGMSWVRQAPGKGLEWVSAIPWNGGSTYYKESVKGRFTISRDNAKKTLYLQMNSLKSEDTAVYYCAKRSGRIAFGALDAWGQGTLVTVSS
VL: QAVVTQEPSLSVSPGGTVTLTCGLSSGSVTSSNYPDWYQQTPGQAPRGLIYSTDSRHSGVPSRFSGSISGNKAALTITGAQSEDEADYYCGLYMYSGSKNYVFGGGTKLTVL
notes: human IgG1 with the LALA mutations (L234A, L235A); produced in HEK293 cells; also called 3B2 mAb; parental 3B2 Ab
R0 [1]: 143 RU | koff [1]: 0.00097 s⁻¹ | kon [1]: 790000 M⁻¹ s⁻¹ | R0 [2]: 162 RU | koff [2]: 0.00186 s⁻¹ | kon [2]: 1.14e+06 M⁻¹ s⁻¹ | R0 [3]: 195 RU | koff [3]: 0.00061 s⁻¹ | kon [3]: 1.13e+06 M⁻¹ s⁻¹ | % Phosphorylation Induced in C2C12 Mouse Assay, Assay 1 [4]: 74 % versus agrin | % Phosphorylation Induced in C2C12 Mouse Assay, Assay 2 [4]: 94 % versus agrin | % Phosphorylation Induced in C2C12 Mouse Assay, Assay 3 [4]: 64 % versus agrin | % Phosphorylation Induced in C2C12 Mouse Assay, Average [4]: 77 % versus agrin

— US20230151091A1 (NEW YORK UNIVERSITY, published 2023)
